Tests used:
MYB108A (VviMYB108A) [1] = biological target: T1, MYB108A (VviMYB108A) (UniProt C3W4Q3 1-306); test: competition; increasing unlabeled competitor vs biotin MBS probe (EMSA); EMSA per Thermo Fisher EMSA Kit manual; buffer, salt, pH and temperature not stated; conditions: protein: recombinant; tags: His
T1 sequence: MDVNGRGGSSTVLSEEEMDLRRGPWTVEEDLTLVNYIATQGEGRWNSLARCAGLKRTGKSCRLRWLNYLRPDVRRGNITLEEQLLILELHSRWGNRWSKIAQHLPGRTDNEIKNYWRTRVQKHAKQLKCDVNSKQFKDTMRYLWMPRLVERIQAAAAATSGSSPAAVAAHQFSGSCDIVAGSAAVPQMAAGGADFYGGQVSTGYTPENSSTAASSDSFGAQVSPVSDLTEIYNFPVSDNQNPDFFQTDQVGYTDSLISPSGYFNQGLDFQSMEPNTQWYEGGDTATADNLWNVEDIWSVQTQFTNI

MYB108A (VviMYB108A) [2] = biological target: T1, MYB108A (VviMYB108A); test: competition; unlabeled mutant competitor vs biotin MBS probe (EMSA); EMSA per Thermo Fisher EMSA Kit manual; buffer, salt, pH and temperature not stated; conditions: protein: recombinant; tags: His
MYB108A (VviMYB108A) [3] = biological target: T1, MYB108A (VviMYB108A); test: EMSA; EMSA per Thermo Fisher EMSA Kit manual; buffer, salt, pH and temperature not stated; conditions: protein: recombinant; tags: His; label: biotin

B1: unlabeled MBS competitor (dsDNA)
DNA 1: CATGTCCCTGTGAACCTAACGTAAGGCA
DNA 2: TGCCTTACGTTAGGTTCACAGGGACATG
binding result (MYB108A (VviMYB108A) [1]): binds

B2: mutant MBS competitor (mMBS) (dsDNA)
DNA 1: CATGTCCCTGTGTACATATCGTAAGGCA
DNA 2: TGCCTTACGATATGTACACAGGGACATG
binding result (MYB108A (VviMYB108A) [2]): no binding

B3: ACS1 promoter MBS probe (dsDNA)
DNA 1: CATGTCCCTGTGAACCTAACGTAAGGCA
DNA 2: TGCCTTACGTTAGGTTCACAGGGACATG
binding result (MYB108A (VviMYB108A) [3]): binds

Source: PMC6804660, “Melatonin enhances salt tolerance by promoting MYB108A-mediated ethylene biosynthesis in grapevines”
